{"source": "IntAct's records for PubMed 20952388", "parents": {"B1": {"name": "Ethylene receptor 1 (Arabidopsis thaliana (Mouse-ear cress)), P49333 (parent)", "chain": "MEVCNCIEPQWPADELLMKYQYISDFFIAIAYFSIPLELIYFVKKSAVFPYRWVLVQFGAFIVLCGATHLINLWTFTTHSRTVALVMTTAKVLTAVVSCATALMLVHIIPDLLSVKTRELFLKNKAAELDREMGLIRTQEETGRHVRMLTHEIRSTLDRHTILKTTLVELGRTLALEECALWMPTRTGLELQLSYTLRHQHPVEYTVPIQLPVINQVFGTSRAVKISPNSPVARLRPVSGKYMLGEVVAVRVPLLHLSNFQINDWPELSTKRYALMVLMLPSDSARQWHVHELELVEVVADQVAVALSHAAILEESMRARDLLMEQNVALDLARREAETAIRARNDFLAVMNHEMRTPMHAIIALSSLLQETELTPEQRLMVETILKSSNLLATLMNDVLDLSRLEDGSLQLELGTFNLHTLFREVLNLIKPIAVVKKLPITLNLAPDLPEFVVGDEKRLMQIILNIVGNAVKFSKQGSISVTALVTKSDTRAADFFVVPTGSHFYLRVKVKDSGAGINPQDIPKIFTKFAQTQSLATRSSGGSGLGLAISKRFVNLMEGNIWIESDGLGKGCTAIFDVKLGISERSNESKQSGIPKVPAIPRHSNFTGLKVLVMDENGVSRMVTKGLLVHLGCEVTTVSSNEECLRVVSHEHKVVFMDVCMPGVENYQIALRIHEKFTKQRHQRPLLVALSGNTDKSTKEKCMSFGLDGVLLKPVSLDNIRDVLSDLLEPRVLYEGM", "partner": "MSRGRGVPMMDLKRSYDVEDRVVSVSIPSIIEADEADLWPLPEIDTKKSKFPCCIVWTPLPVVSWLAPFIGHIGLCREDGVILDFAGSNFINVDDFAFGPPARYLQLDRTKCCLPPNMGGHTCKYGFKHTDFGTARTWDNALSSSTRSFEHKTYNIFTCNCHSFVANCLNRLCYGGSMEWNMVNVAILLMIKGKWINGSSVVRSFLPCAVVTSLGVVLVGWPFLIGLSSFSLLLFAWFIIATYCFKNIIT"}}}
{"variants_of": "B1", "conditions": "with rte1_arath RTE1, F4ITL6"}
{"variant": "C65W", "effect of a mutation on the interaction": "decreasing interaction"}
{"variant": "A102T", "effect of a mutation on the interaction": "decreasing interaction"}
